Here are results for one molecule from patent US20240270857A1 (CHIA TAI TIANQING PHARMACEUTICAL GROUP, published 2024).

By Kd is commonly meant the equilibrium constant for the complex coming apart. Broadly, the koff is the rate constant with which the complex falls apart. Lower therefore signals a long-lived complex. The kon is a measure of how fast the partners come together. Low values mean slow association, high ones fast association. One may read the EC50 as the concentration needed to bring the measured effect to its halfway point.

Read-outs that look alike come from different tables or passages of the source.

Test [1] has as its target T1, Human IL-1Rrp2/IL-1R6 protein, His Tag (ACROBiosystems, IL2-H52H6) (human, UniProt Q9HB29 20-335).
T1 construct: Bought protein; the soluble protein is likely only the extracellular part; also called hIL-36R; human IL36R antigen; not shown: His tag
T1 sequence: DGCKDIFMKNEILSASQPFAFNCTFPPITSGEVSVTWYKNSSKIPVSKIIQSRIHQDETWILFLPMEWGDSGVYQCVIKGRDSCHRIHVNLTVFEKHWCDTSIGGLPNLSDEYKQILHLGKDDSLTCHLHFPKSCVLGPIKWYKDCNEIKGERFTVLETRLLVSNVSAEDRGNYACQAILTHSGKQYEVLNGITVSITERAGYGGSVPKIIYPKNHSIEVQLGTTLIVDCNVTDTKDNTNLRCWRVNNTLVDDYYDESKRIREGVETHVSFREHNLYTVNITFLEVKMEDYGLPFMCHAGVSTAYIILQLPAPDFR
Description: BLI (ForteBio Octet), antibody on ProA sensor, 1:1 model. The protocol:
The affinity of anti-IL-36R antibodies to CynoIL36R-ECD mFc and human IL-1Rrp2/IL-IR6 protein, His Tag (ACROBiosystems, IL2-H52H6) was measured by a ForteBio molecular interaction instrument. […] And then the biosensor was used to bind CynoIL36R-ECD mFc or human IL-1Rrp2/IL-1R6 protein, His Tag which was diluted by a gradient (the initial concentration was 200 nM, 2-fold gradient dilution), the response signals were detected in real time using a Fortebio molecular interaction instrument (SARTORIUS, octet red 96e), and association and dissociation curves were obtained. After the completion of dissociation in each cycle, the biosensor was regenerated for the next capture; the procedure was repeated until the affinity of the different anti-IL-36R antibodies for IL-36R was determined. The resulting data were analyzed by Fortebio Data Analysis 11.0 software in a 1:1 (Langmuir) binding model to determine kₐ (kₒₙ) and kd (koff) values, and the dissociation constant KD was calculated by KD=kd/kₐ. The detection method essentially followed the manufacturer's recommendations, and more information could be found at www.fortebio.com.
Affinity, binding and blocking assays for humanized antibodies hz72C1-1.1, hz72C1-1.2, hz72C1-1.3, hz72C1-2.1, hz72C1-2.2 and hz72C1-2.3 as well as hz84C4-1.1, hz84C4-1.2, hz84C4-1.3, hz84C4-1.4, hz84C4-1.5, hz84C4-2.1, hz84C4-2.2, hz84C4-2.3, hz84C4-2.4 and hz84C4-2.5 were performed according to the methods of Example 4, Example 5. Example 6, Example 7 and Example 8.

For test [2], the target named is T1, Human IL-1Rrp2/IL-1R6 protein, His Tag …. Nature of the test: ELISA, plate coated with human IL-1Rrp2/IL-1R6 His Tag, HRP-protein A/G, OD450. On the procedure: (§1) The binding activity of anti-IL-36R antibodies to IL-36R was analyzed by ELISA using human IL-1Rrp2/IL-1R6 protein, His Tag (ACROBiosystems, IL2-H52H6) and CynoIL36R-ECD mFc (for detection of chimeric and humanized antibodies), and hIL36R-ECD hFc and CynoIL36R-ECD hFc protein (for detection of hybridoma antibodies) as antigens. A 96-well plate (Costar, 9018) was coated with 2 μg/mL antigen at 100 μL/well and incubated overnight at 4° C. After the 96-well plate was washed with a washing buffer (PBS containing 0.05% v/v Tween 20), a blocking buffer (PBS containing 2% bovine serum albumin) was added for blocking at 37° C. for 2 h. After the 96-well plate was washed with the washing buffer, 100 μL of the gradient diluted anti-IL-36R antibody of the present disclosure or the reference antibody BI655130 (the initial concentration of the antibody was 66 nM, 4-fold gradient dilution) was added to each well, and the plate was incubated at room temperature for 1 h. After the 96-well plate was washed with the washing buffer, 100 μL of horseradish peroxidase-conjugated recombinant protein A/G (TheroScientific, 32490) was added to each well, and the plate was incubated at room temperature for 1 h. After the 96-well plate was washed with the washing buffer, 100 μL of a TMB solution (Thermo, 00-4201-56) was added to each well, and the plate was incubated at room temperature for 2 min. Finally, 100 μL of a stop solution (2 N H₂SO₄) was added to each well to stop the reaction. Absorbance was read at 450 nm using a microplate reader (PE, Envision), the resulting data was analyzed using GraphPad Prism, and EC₅₀ was calculated. Binding EC₅₀ of the chimeric anti-IL-36R antibodies to hIL-36R in an ELISA assay is shown in FIG. 1. and binding EC₅₀ of the chimeric anti-IL-36R antibodies to CynoIL-36R in an ELISA assay is shown in FIG. 2. The binding of BI655130 is shown as a control, and the binding of IgG4 is shown as a negative control.

Test [3] has the same target. The test is described as above. The protocol:
as §1
This is another data set of the same source.

Test [4] deals with T2, human IL-36R overexpressed on 293T-hIL36R-NFκB cells (human, UniProt Q9HB29 20-575).
T2 sequence: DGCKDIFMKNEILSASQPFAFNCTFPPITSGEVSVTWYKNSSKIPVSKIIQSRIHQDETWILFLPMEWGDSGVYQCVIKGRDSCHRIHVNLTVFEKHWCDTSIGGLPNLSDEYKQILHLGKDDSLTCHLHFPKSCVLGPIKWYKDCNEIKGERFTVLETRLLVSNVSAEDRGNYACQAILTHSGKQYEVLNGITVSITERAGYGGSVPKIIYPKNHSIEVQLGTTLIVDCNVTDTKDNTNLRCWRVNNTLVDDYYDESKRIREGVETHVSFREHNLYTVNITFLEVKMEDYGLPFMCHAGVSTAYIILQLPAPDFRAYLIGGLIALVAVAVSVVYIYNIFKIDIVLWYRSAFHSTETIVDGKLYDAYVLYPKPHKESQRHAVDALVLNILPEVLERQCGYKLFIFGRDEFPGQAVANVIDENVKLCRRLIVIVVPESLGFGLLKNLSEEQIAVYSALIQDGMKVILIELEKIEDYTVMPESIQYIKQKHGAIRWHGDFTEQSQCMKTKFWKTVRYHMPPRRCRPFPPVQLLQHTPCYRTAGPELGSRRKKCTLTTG
Nature of the test: cell-based or functional assay.

B1: BI655130 (antibody, human IgG1, kappa, L234A L235A)
heavy: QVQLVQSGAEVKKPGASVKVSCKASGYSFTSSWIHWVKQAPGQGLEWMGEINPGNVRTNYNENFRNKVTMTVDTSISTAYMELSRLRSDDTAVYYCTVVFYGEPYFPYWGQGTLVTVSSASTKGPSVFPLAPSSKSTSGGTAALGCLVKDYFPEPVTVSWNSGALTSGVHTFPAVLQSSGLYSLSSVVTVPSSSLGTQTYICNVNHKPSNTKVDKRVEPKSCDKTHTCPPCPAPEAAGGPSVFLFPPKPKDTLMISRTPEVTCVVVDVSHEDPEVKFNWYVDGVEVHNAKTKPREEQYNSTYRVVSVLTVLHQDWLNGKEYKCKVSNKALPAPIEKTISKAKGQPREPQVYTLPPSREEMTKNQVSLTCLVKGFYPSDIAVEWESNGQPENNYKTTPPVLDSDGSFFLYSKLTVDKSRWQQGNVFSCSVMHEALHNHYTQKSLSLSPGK
light: QIVLTQSPGTLSLSPGERATMTCTASSSVSSSYFHWYQQKPGQAPRLWIYRTSRLASGVPDRFSGSGSGTDFTLTISRLEPEDAATYYCHQFHRSPLTFGAGTKLEIKRTVAAPSVFIFPPSDEQLKSGTASVVCLLNNFYPREAKVQWKVDNALQSGNSQESVTEQDSKDSTYSLSSTLTLSKADYEKHKVYACEVTHQGLSSPVTKSFNRGEC
notes: also called Spesolimab
In test [1], B1 returned a Kd of 0.713 nM, a koff of 5.84e-05 s⁻¹ and a kon of 81900 M⁻¹ s⁻¹. Besides, the EC50 in test [2] is 0.348 nM. Also, the concentration for a half-maximal effect (EC50) in test [3] amounted to 0.764 nM. Also, in test [4], the “IC50 (M); hIL36α; NFκB-luciferase” value turned out to be 6.09e-09 M, the “IC50 (M); hIL36αβγ; NFκB-luciferase” value stood at 2.36e-08 M, the “IC50 (M); hIL36β; NFκB-luciferase” value was 2.45e-09 M and the “IC50 (M); hIL36γ; NFκB-luciferase” value is about 1.32e-08 M. In test [4], the “Maximum inhibition rate %; hIL36α; NFκB-luciferase” value stood at 84.5%, the “Maximum inhibition rate %; hIL36αβγ; NFκB-luciferase” value came out at 81.2%, the “Maximum inhibition rate %; hIL36β; NFκB-luciferase” value was 86.7% and the “Maximum inhibition rate %; hIL36γ; NFκB-luciferase” value turned out to be 79.2%.
